Test results as given in the supplement of paper PMC9428881.
± gives the standard error.

Assay: background-corrected fluorescence of 3'-dye-labeled ssDNA relative to brightest sequence (3'-GCGCG) (fraction); higher = brighter dye fluorescence (less quenching)
How it was run: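 Light-directed phosphoramidite synthesis on glass slides produced single-stranded DNA carrying a 3' Cy3 or Cy5 dye next to each of 1024 permuted pentamers. After a 2 h acetonitrile wash at r.t., arrays were scanned at 532 or 635 nm both before and after overnight deprotection in ethylenediamine/ethanol. Every value is the mean of 10 features per array over at least 3 syntheses. Fluorescence had unlabeled-oligo background subtracted and was scaled to the brightest sequence.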

Sequence | background-corrected fluorescence (dye: Cy3 (3' terminal)) | background-corrected fluorescence (dye: Cy5 (3' terminal))
TTTTTTGCGCATGCTGATGATTTTTTTTTTTTTTTATACC [CCATA] | 0.411 ± 0.027 | 0.295 ± 0.018
TTTTTTGCGCATGCTGATGCTTTTTTTTTTTTTTTATACA [ACATA] | 0.492 ± 0.031 | 0.372 ± 0.024
TTTTTTGCGCATGCTGCGCATTTTTTTTTTTTTTTATAAT [TAATA] | 0.567 ± 0.0072 | 0.418 ± 0.026
TTTTTTGCGCATGCTGCTCATTTTTTTTTTTTTTTATAAG [GAATA] | 0.532 ± 0.019 | 0.429 ± 0.031
TTTTTTGCGCATGCTGCTGATTTTTTTTTTTTTTTATAAC [CAATA] | 0.434 ± 0.032 | 0.327 ± 0.023
TTTTTTGCGCATGCTGCTGCTTTTTTTTTTTTTTTATAAA [AAATA] | 0.567 ± 0.044 | 0.507 ± 0.069
TTTTTTGCTCAGCAGCAGCATTTTTTTTTTTTTTTAGTTT [TTTGA] | 0.577 ± 0.017 | 0.404 ± 0.022
TTTTTTGCTCAGCAGCATCATTTTTTTTTTTTTTTAGTTG [GTTGA] | 0.516 ± 0.037 | 0.408 ± 0.034
TTTTTTGCTCAGCAGCATGATTTTTTTTTTTTTTTAGTTC [CTTGA] | 0.433 ± 0.023 | 0.335 ± 0.025
TTTTTTGCTCAGCAGCATGCTTTTTTTTTTTTTTTAGTTA [ATTGA] | 0.57 ± 0.0086 | 0.409 ± 0.016
TTTTTTGCTCAGCATCAGCATTTTTTTTTTTTTTTAGTGT [TGTGA] | 0.572 ± 0.021 | 0.474 ± 0.033
TTTTTTGCTCAGCATCATCATTTTTTTTTTTTTTTAGTGG [GGTGA] | 0.625 ± 0.034 | 0.546 ± 0.076
TTTTTTGCTCAGCATCATGATTTTTTTTTTTTTTTAGTGC [CGTGA] | 0.518 ± 0.047 | 0.405 ± 0.024
TTTTTTGCTCAGCATCATGCTTTTTTTTTTTTTTTAGTGA | 0.645 ± 0.022 | 0.536 ± 0.037
TTTTTTGCTCAGCATGAGCATTTTTTTTTTTTTTTAGTCT [TCTGA] | 0.472 ± 0.018 | 0.368 ± 0.029
TTTTTTGCTCAGCATGATCATTTTTTTTTTTTTTTAGTCG [GCTGA] | 0.579 ± 0.024 | 0.444 ± 0.036
TTTTTTGCTCAGCATGATGATTTTTTTTTTTTTTTAGTCC [CCTGA] | 0.41 ± 0.024 | 0.329 ± 0.04

Sequence | background-corrected fluorescence (dye: Cy3 (3' terminal)) | background-corrected fluorescence (dye: Cy5 (3' terminal))
TTTTTTGCTCAGCATGATGCTTTTTTTTTTTTTTTAGTCA [ACTGA] | 0.529 ± 0.013 | 0.407 ± 0.029
TTTTTTGCTCAGCATGCGCATTTTTTTTTTTTTTTAGTAT [TATGA] | 0.554 ± 0.031 | 0.417 ± 0.028
TTTTTTGCTCAGCATGCTCATTTTTTTTTTTTTTTAGTAG [GATGA] | 0.605 ± 0.054 | 0.46 ± 0.032
TTTTTTGCTCAGCATGCTGATTTTTTTTTTTTTTTAGTAC [CATGA] | 0.485 ± 0.006 | 0.371 ± 0.027
TTTTTTGCTCAGCATGCTGCTTTTTTTTTTTTTTTAGTAA [AATGA] | 0.563 ± 0.016 | 0.493 ± 0.037
TTTTTTGCTCATCAGCAGCATTTTTTTTTTTTTTTAGGTT [TTGGA] | 0.584 ± 0.022 | 0.464 ± 0.08
TTTTTTGCTCATCAGCATCATTTTTTTTTTTTTTTAGGTG [GTGGA] | 0.585 ± 0.025 | 0.482 ± 0.017
TTTTTTGCTCATCAGCATGATTTTTTTTTTTTTTTAGGTC [CTGGA] | 0.459 ± 0.014 | 0.376 ± 0.019
TTTTTTGCTCATCAGCATGCTTTTTTTTTTTTTTTAGGTA [ATGGA] | 0.564 ± 0.027 | 0.465 ± 0.06
TTTTTTGCTCATCATCAGCATTTTTTTTTTTTTTTAGGGT [TGGGA] | 0.7155 ± 0.0051 | 0.587 ± 0.027
TTTTTTGCTCATCATCATCATTTTTTTTTTTTTTTAGGGG [GGGGA] | 0.69 ± 0.019 | 0.591 ± 0.028
TTTTTTGCTCATCATCATGATTTTTTTTTTTTTTTAGGGC [CGGGA] | 0.598 ± 0.023 | 0.478 ± 0.064
TTTTTTGCTCATCATCATGCTTTTTTTTTTTTTTTAGGGA | 0.707 ± 0.036 | 0.642 ± 0.037
TTTTTTGCTCATCATGAGCATTTTTTTTTTTTTTTAGGCT [TCGGA] | 0.596 ± 0.014 | 0.435 ± 0.028
TTTTTTGCTCATCATGATCATTTTTTTTTTTTTTTAGGCG [GCGGA] | 0.633 ± 0.026 | 0.521 ± 0.049
TTTTTTGCTCATCATGATGATTTTTTTTTTTTTTTAGGCC [CCGGA] | 0.479 ± 0.037 | 0.368 ± 0.064
TTTTTTGCTCATCATGATGCTTTTTTTTTTTTTTTAGGCA [ACGGA] | 0.584 ± 0.0074 | 0.463 ± 0.017
